In general, Kd refers to the constant that tells how readily two partners part at equilibrium.

The source of these data is paper PMC8550936.

The target in assay [1] is Venezuelan equine encephalitis virus (VEEV) virus-like particles (Venezuelan equine encephalitis virus, strain TC-83) (UniProt P09592). In words: cryo-EM structure.
The target is the same in assay [2]. Description: SPR; Biacore T200; […]; 30 µl/min, 25 °C, HBS-P plus 1 mM CaCl2; global 1:1 fit; […].

Sequence of LDLRAD3(D1+D2), cleaved monomeric ectodomain of mouse LDLRAD3, domains 1 and 2 (A2AR95 18-112): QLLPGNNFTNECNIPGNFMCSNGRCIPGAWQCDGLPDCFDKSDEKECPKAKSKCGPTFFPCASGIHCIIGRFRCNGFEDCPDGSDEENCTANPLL
Sequence of LDLRAD3(D1), cleaved monomeric ectodomain of mouse low-density lipoprotein receptor class A domain-c (A2AR95 18-70): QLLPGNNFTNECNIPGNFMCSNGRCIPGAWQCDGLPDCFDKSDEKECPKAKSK

“LDLRAD3(D1), cleaved monomeric ectodomain of mouse low-density lipoprotein receptor class A domain-c (from UniProt A2AR95 18-70) (domain or fragment)” showed a stoichiometry N (molecules of LDLRAD3(D1) per VLP) in assay [1] of 240.
“LDLRAD3(D1+D2), cleaved monomeric ectodomain of mouse LDLRAD3, domains 1 and 2 (from UniProt A2AR95 18-112) (domain or fragment)”: the Kd in assay [2] came to 50 nM.
